B1: HDV Ribozyme (parent)
chain: GGCCGGCAUGGUCCCAGCCUCCUCGCUGGCGCCGGCUGGGCAACAUUCCGAGGGGACCGUCCCCUCGGUAAUGGCGAAUGGGACCCA

Variants of B1 are the subject of this data set. Nature of the data set: self-cleavage, relative activity (ratio to wild type); higher = more cleavage; co-transcriptional.
GGCCGGCAUGGUCCCAGCCUCCUCGCUGGCGCCGGCUGGGCAACAUUCCGAGGGGACCGACCCCUCGGUAAUGGCGAAUGGAACCCA: the self-cleavage turned out to be 0.373.

Take GGCCGGCAUGCUCCCAGCCUCCUCGCUGGCGCCGGCUGGGCAACAUUCCGAGGGGACCGUCCCCUCGGUAAUUGCGAAUGGGACCCA: the self-cleavage was determined as 0.16.

With GGCCGGCAUGGUCCCAGCCUCCUCGCUCGCGCCGGCUGGGCAACAUUCCGAGGGCACCGUCCCCUCGGUAAUGGCGAAUGGGACCCA, the self-cleavage was 0.0692.

GGCCGGCAUGGUCCCAGCCUCCUCGCUGGCGCCGUCUGGGCAACAUUCCGGGGGGACCGUCCCCUCGGUAAUGGCGAAUGGGACCCA: the self-cleavage worked out at 0.356.

GGCCGGCAUGGUCCCAGCCUCCUCGCUGGCGCCGGCUUGGCAACAUUCCGAGGGGUCCGUCCCCUCGGUAAUGGCGAAUGGGACCCA: the self-cleavage worked out at 0.273.

As for GGCCGGCAUGGUCCCAGCCUCCACGCUGGCGCCGGCUGGGCAACAUUCCGAGGGGACCGUCCCCUCGGUAAUGUCGAAUGGGACCCA, the self-cleavage was 0.348.

Regarding GGCCAGCAUGGUCCCAGCCUCCUCGCUGGCGCCGGCUGGGCAACAUUCCGAGGGGGCCGUCCCCUCGGUAAUGGCGAAUGGGACCCA, the self-cleavage was found to be 0.225.

For the variant GGCCGGCAUGGUCUCAGCCUCCUCGCUGGCGCCGGCUGUGCAACAUUCCGAGGGGACCGUCCCCUCGGUAAUGGCGAAUGGGACCCA, the self-cleavage worked out at 0.895.

Take GGCCGGCAUGGUGCCAGUCUCCUCGCUGGCGCCGGCUGGGCAACAUUCCGAGGGGACCGUCCCCUCGGUAAUGGCGAAUGGGACCCA: the self-cleavage was 0.0875.

Turning to GGCCGGCAUGGUCCUAGCUUCCUCGCUGGCGCCGGCUGGGCAACAUUCCGAGGGGACCGUCCCCUCGGUAAUGGCGAAUGGGACCCA, the self-cleavage was 0.0767.

As for UGCCGGCAUGGUCCCAGCCUCCUCGCUGGCGCCGGCUGGGCAACAUUUCGAGGGGACCGUCCCCUCGGUAAUGGCGAAUGGGACCCA, the self-cleavage was 0.415.

For the variant GGCCGGCAUGGUCCCAGCCUCCUCGCUGGCGCCGGCUGGGCAACAUACCGAGGGGACCGUCCCCUCGGUAAUGCCGAAUGGGACCCA, the self-cleavage worked out at 0.104.

GGCCGGCAUGGUCCCAGCCUCCUCGCUGGCGCCGACUGGGCAACAUUCCGAGGGGACCGUCCCCUCGGUAAGGGCGAAUGGGACCCA: the self-cleavage stood at 0.251.

Regarding GGCCGGCAUGGUCCCAGCCUCCUCGCUGGCGCCGGCUGGGCAACAUUCCGAGGGGACCGUCACCUCGGUAGUGGCGAAUGGGACCCA, the self-cleavage turned out to be 1.03.

In the case of GGCCGGCAUGGUCCCAGCCUCCUCUCUGGGGCCGGCUGGGCAACAUUCCGAGGGGACCGUCCCCUCGGUAAUGGCGAAUGGGACCCA, the self-cleavage amounted to 0.148.

Regarding GGCCGGCAUGGUCCCAGCCUCCUCGCUGGCGCCGGCUGGGCAACAUACCGAGGGGACCGUCCCCUCGGUAAUGGCGUAUGGGACCCA, the self-cleavage came to 0.516.

As to GGCCGGCAUGGUCACAGCCUCCUCGCUGGCGCCGGCUGGGCAACAUUCCGAGGGGACCAUCCCCUCGGUAAUGGCGAAUGGGACCCA, the self-cleavage was 0.762.

GGCCGGCAUGGUCCCAGCCUCCUCGCUGGCGCCGGCCGGGCAACAUUCCGAGGGGACCGUCCCCUCGGUCAUGGCGAAUGGGACCCA: the self-cleavage amounted to 1.04.

Turning to GGCCGGCAUGGUCCCAGCCUCCUCGCUGGCCCCGGCUGGGCAACAUUCCGGGGGGACCGUCCCCUCGGUAAUGGCGAAUGGGACCCA, the self-cleavage was determined as 0.341.

For the variant GGCCGGCAUGGUCCCAGCCUCCUCGCUGGCGCCGGCUGGGCAACAUUCCAAGGGGACCGUCCCCUCGGUAAGGGCGAAUGGGACCCA, the self-cleavage was 0.582.

In the case of GGCCGUCAUGGUCCCAGCCUCCUCGCUGGCGCCGGCUGGGCAACAUUCCGAGGGGACCGUCCCCUCGGUAAUGGCGAAUGGGAACCA, the self-cleavage came to 0.375.

In the case of GGCCGGCAUGGUCCCAGCCUCCUCGCUGGCGCCGGCUGUGCAACAUUCCGAGGGGACCGUCCCCUCGGUAAGGGCGAAUGGGACCCA, the self-cleavage was found to be 0.284.

Regarding GGCCGGCAUGGUCCCAGCCUCCUCCCUGGCACCGGCUGGGCAACAUUCCGAGGGGACCGUCCCCUCGGUAAUGGCGAAUGGGACCCA, the self-cleavage stood at 0.135.

On to GGCCGGCAUGCUCCCAGCCUCCGCGCUGGCGCCGGCUGGGCAACAUUCCGAGGGGACCGUCCCCUCGGUAAUGGCGAAUGGGACCCA, for which the self-cleavage is 0.0652.

Take GGCCGGCAUGGUCCGAGCCUCAUCGCUGGCGCCGGCUGGGCAACAUUCCGAGGGGACCGUCCCCUCGGUAAUGGCGAAUGGGACCCA: the self-cleavage amounted to 0.0504.

As for GGCCGGCAUGGUCCCAGCCUCCUCGCUGGCGCCGGCUGGGCAACAUUCCGAGGGGACCGUCCCCUCGGUAUUGGCGAAUGGAACCCA, the self-cleavage was 0.365.

Take GGCCGGCAUGGUCCCAGCCUCCUCGCUGGCGCCGGCUGGGCAACAUUCCGAGGGGACCGUCCCCUGGCUAAUGGCGAAUGGGACCCA: the self-cleavage was found to be 0.554.

As to GGCCGGCAUUGUCCCAGCCUCCUCGCUGGCGUCGGCUGGGCAACAUUCCGAGGGGACCGUCCCCUCGGUAAUGGCGAAUGGGACCCA, the self-cleavage was 0.546.

Turning to GGCCCGCAUGGUCCCAGCCUCCUCGCUGGCGUCGGCUGGGCAACAUUCCGAGGGGACCGUCCCCUCGGUAAUGGCGAAUGGGACCCA, the self-cleavage turned out to be 0.0573.

Take GGCCGGCUUGGUCCCAGCCUCCUCGCUGGCGCCCGCUGGGCAACAUUCCGAGGGGACCGUCCCCUCGGUAAUGGCGAAUGGGACCCA: the self-cleavage stood at 0.

In the case of GGCCGGCAUGGUCCCAGCCUCCUCGCUGGCGCCGGCUGGGCAACUUUCCGAGGGGACCGUCCCCUCGGUAAUAGCGAAUGGGACCCA, the self-cleavage turned out to be 0.616.

Regarding GGCCGGCAUGGUCCCAGCCUCCUCGCUUGCGCCGGCUGGGCAACAUUCCGAGGGGACCGUCCCCUCGGUAAUGGCGAAUGCGACCCA, the self-cleavage came out at 0.0282.

These data come from the RNAGym collection of RNA variant scans (doi:10.7554/elife.80360).
